Results as given in patent US20040265863, “Methods and compositions for synthesis of nucleic acid molecules using multiple recognition sites” (Invitrogen Corporation, published 2004).

Target: Vaccinia DNA topoisomerase I (Vaccinia virus, UniProt P68698 P68698:1-314)
Test: covalent topoisomerase-DNA complex isolated on SP Sepharose; cleaved linker band seen after proteinase K
Details: tags: Invitrogen; nicked duplex with 3' overhang
Description: The topoisomerase-charged promoter linker was purified using an Akta-FPLC and Unicom software ver. 4.00 (Amersham). 360 μl of the linking reaction was loaded onto a 1 ml HiTrap SP Sepharose HP pre-packed column (Amersham) pre-equilibrated in buffer A (50 mM Tris-HCl pH 7.0), washed at 0.5 ml/min with 11 ml buffer A (collected in 1 ml fractions), and eluted with a 5 ml, 0-100% buffer B (50 mM Tris-HCl pH 7.0, 1M NaCl) gradient followed by 3 ml of 100% buffer B. The eluate was collected in 0.2 ml fractions.

B1: T7 TOPO linker (T7topG/T7botG/TOPO-5) (dsDNA)
DNA 1: GACTCGTAATACGACTCACTATAGGGCCCTTATTCCGATAGTG
DNA 2: AGGGCCCTATAGTGAGTCGTATTACGAGTCAAAAAAAAAAAA
DNA 3: CAACACTATCGGAATA
modifications: 5'-phosphate on each oligo
Q: Does B1 bind?
A: binds
